Assay results taken from patent US20240124607A1 (Merck Sharp & Dohme, published 2024).
Where a chain is given by its changes, count along the chain named.

Tests used:
Human CEACAM5 I113T = molecular target: T1, Human CEACAM5 I113T (human, UniProt P06731 35-685, limits assumed); assay: SPR, 37C, pH 7.4
T1 sequence: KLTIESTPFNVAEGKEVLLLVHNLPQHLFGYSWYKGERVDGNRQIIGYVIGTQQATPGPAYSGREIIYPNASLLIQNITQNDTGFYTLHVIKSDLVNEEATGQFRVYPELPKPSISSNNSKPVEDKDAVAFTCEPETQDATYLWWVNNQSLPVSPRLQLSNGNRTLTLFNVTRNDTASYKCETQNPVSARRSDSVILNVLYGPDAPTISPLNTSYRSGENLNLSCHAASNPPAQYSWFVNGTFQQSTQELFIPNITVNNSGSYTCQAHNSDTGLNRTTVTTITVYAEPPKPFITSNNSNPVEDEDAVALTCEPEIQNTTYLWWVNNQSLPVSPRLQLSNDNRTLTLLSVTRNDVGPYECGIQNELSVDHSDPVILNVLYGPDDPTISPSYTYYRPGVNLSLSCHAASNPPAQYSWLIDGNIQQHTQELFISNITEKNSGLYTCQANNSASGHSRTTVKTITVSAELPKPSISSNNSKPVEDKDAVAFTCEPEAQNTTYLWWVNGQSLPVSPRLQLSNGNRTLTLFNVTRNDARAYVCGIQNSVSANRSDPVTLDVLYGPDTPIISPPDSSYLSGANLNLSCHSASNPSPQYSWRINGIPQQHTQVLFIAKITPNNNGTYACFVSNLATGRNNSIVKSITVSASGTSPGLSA

Human CEACAM5 (K398) = molecular target: T2, Human CEACAM5 (K398) (human, UniProt P06731 35-685, limits assumed); assay: SPR, 37C, pH 7.4
T2 construct: also called K398 allele
T2 sequence: T1 sequence with T79I, E364K

Cyno NKG2D-mFc = molecular target: T3, Cyno NKG2D-mFc (cynomolgus monkey, UniProt P61252 78-216, limits assumed); assay: SPR, NKG2D-mFc captured, 37C, pH 6.0
T3 construct: also called cynomolgus NKG2D fused to a mouse Fc
T3 sequence (looked up): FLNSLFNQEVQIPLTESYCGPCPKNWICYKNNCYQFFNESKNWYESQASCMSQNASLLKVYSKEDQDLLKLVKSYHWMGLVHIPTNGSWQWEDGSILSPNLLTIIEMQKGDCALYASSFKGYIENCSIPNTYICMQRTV
Method: (§1) Binding to NKG2D was assessed by SPR using a mouse Fc capture kit (Cytiva, #BR100838) immobilized onto a CM5 chip. Human and cynomolgus NKG2D fused to a mouse Fc were captured and AB0411, AB0466, or AB0621 was titrated from 600 nM.

[1] = molecular target: T4, soluble mouse Fc-human NKG2D dimer (human, UniProt P26718 78-216, limits assumed); assay: SPR, NKG2D-mFc captured, 37C, pH 6.0
T4 construct: also called NKG2D-mFc; human NKG2D fused to a mouse Fc
T4 sequence (looked up): T3 sequence (looked up) with N38D, I128T
Method: as §1

hCEACAM5 A2-B2 domain = molecular target: T5, hCEACAM5 A2-B2 domain (human, UniProt P06731 323-500, limits assumed); assay: SPR with hCEACAM5 domains
T5 sequence: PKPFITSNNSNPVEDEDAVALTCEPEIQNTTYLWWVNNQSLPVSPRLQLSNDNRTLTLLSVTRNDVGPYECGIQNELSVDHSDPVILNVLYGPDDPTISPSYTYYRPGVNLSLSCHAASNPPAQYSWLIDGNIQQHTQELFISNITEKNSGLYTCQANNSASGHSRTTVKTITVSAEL
Method: (§2) If the protein domain was an Fc fusion, AB0411, AB0466, AB0264, or AB0621 were captured using an anti-human Fab antibody (Cytiva, #28958325) immobilized onto a CM5 chip. The various hCEACAM5 protein domains (N-term, A1-B1, A2, B2, A3, or B3) were titrated over the captured TriNKETs at 50 μL/min for 180 sec of association and 300 sec of dissociation. The assay was run at 25° C. in HBS-EP+ running buffer, pH 7.4. The surface of the CM5 chip was regenerated using […] glycine pH 2.1.
(§3) The various hCEACAM5 protein domains were titrated over the captured antibody at 50 μL/min for 180 sec of association and 300 sec of dissociation. The assay was run at 37° C. in HBS-EP+ running buffer, pH 7.4. The surface of the CM5 chip was regenerated using 3M MgCl₂.

hCEACAM5 A3-B3 domain = molecular target: T6, hCEACAM5 A3-B3 domain (human, UniProt P06731 501-685, limits assumed); assay: SPR with hCEACAM5 domains
T6 sequence: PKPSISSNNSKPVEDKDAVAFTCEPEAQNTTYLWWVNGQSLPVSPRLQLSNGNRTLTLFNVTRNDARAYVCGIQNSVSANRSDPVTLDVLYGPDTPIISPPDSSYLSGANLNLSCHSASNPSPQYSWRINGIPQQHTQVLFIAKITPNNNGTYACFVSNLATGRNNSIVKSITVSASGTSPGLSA
Method: as §2, §3

B1: AB0411 F3' CEACAM5 TriNKET (bispecific antibody, human IgG1, kappa)
chain: DIQLTQSPATLSVSPGERATLSCRASQSVSSSYLAWYQQKPGQAPRLLIYGASSRATGIPDRFSGSGSGTDFTLTISRLEPEDFAVYYCQQYNNWPLTFGCGTKVEIKGGGGSGGGGSGGGGSGGGGSQVQLVQSGGGLVQPGGSLRLSCAASGFTFTSYAMSWVRQAPGKCLEWVSAISGTGDSTFYADSVKGRFTFSRDNSKNTLYLQMNSLRAEDTAVYYCAKDLGWLQYGLFDYWGQGTLVTVSSGSDKTHTCPPCPAPELLGGPSVFLFPPKPKDTLMISRTPEVTCVVVDVSHEDPEVKFNWYVDGVEVHNAKTKPREEQYNSTYRVVSVLTVLHQDWLNGKEYKCKVSNKALPAPIEKTISKAKGQPREPRVYTLPPCRDELTKNQVSLTCLVKGFYPSDIAVEWESNGQPENNYKTTPPVLVSDGSFTLYSKLTVDKSRWQQGNVFSCSVMHEALHNHYTQKSLSLSPG
heavy: EVQLVESGGGLVKPGGSLRLSCAASGFTFSSYSMNWVRQAPGKGLEWVSSISSSSSYIYYADSVKGRFTISRDNAKNSLYLQMNSLRAEDTAVYYCARGAPIGAAAGWFDPWGQGTLVTVSSASTKGPSVFPLAPSSKSTSGGTAALGCLVKDYFPEPVTVSWNSGALTSGVHTFPAVLQSSGLYSLSSVVTVPSSSLGTQTYICNVNHKPSNTKVDKKVEPKSCDKTHTCPPCPAPELLGGPSVFLFPPKPKDTLMISRTPEVTCVVVDVSHEDPEVKFNWYVDGVEVHNAKTKPREEQYNSTYRVVSVLTVLHQDWLNGKEYKCKVSNKALPAPIEKTISKAKGQPREPQVCTLPPSRDELTENQVSLTCLVKGFYPSDIAVEWESNGQPENNYKTTPPVLDSDGSFFLYSWLTVDKSRWQQGNVFSCSVMHEALHNHYTQKSLSLSPG
light: DIQMTQSPSSVSASVGDRVTITCRASQGISSWLAWYQQKPGKAPKLLIYAASSLQSGVPSRFSGSGSGTDFTLTISSLQPEDFATYYCQQGVSFPRTFGGGTKVEIKRTVAAPSVFIFPPSDEQLKSGTASVVCLLNNFYPREAKVQWKVDNALQSGNSQESVTEQDSKDSTYSLSSTLTLSKADYEKHKVYACEVTHQGLSSPVTKSFNRGEC
In the case of B1, the Kd (Human CEACAM5 I113T) is reported as 1.9 nM, the kon (Human CEACAM5 I113T) is reported as 210000 M⁻¹ s⁻¹ and the Kd (Human CEACAM5 (K398)) is reported as 1.4 nM. For the same binder, the kon (Human CEACAM5 (K398)) was 270000 M⁻¹ s⁻¹, the Kd (Cyno NKG2D-mFc) was 500 nM and the koff (Cyno NKG2D-mFc) was 0.14 s⁻¹. It also gave a kon (Cyno NKG2D-mFc) of 270000 M⁻¹ s⁻¹, a Kd [1] of 490 nM and a koff [1] of 0.13 s⁻¹. For the same binder, the kon [1] was 280000 M⁻¹ s⁻¹, the binding result (hCEACAM5 A2-B2 domain) was “no binding” and the binding result (hCEACAM5 A3-B3 domain) was “no binding”.
